These results are taken from PMC4252739 (Cell host & microbe, 2014).

A word on the stoichiometry N: it is a count of units in the complex or per binding partner.

Numbering of substitutions follows the chain as printed. In names and notes the source's numbering stands.

The target in data set [1] is HIV-1 CA A14C/E45C cross-linked tubular assemblies (HIV-1). Briefly: co-sedimentation.
Data set [2] deals with the molecule itself. Briefly: SEC.
The data set “cryo-EM imaging” deals with the molecule itself. Description: cryo-EM imaging.
Data set [3] concerns the molecule itself. Briefly: SEC. This is another data set of the same source. Background: In gel filtration, larger molecules generally elute earlier.

B1: MxB-HA K663D (natural protein)
chain: MSKAHKPWPYRRRSQFSSRKYLKKEMNSFQQQPPPFGTVPPQMMFPPNWQGAEKDAAFLAKDFNFLTLNNQPPPGNRSQPRAMGPENNLYSQYEQKVRPCIDLIDSLRALGVEQDLALPAIAVIGDQSSGKSSVLEALSGVALPRGSGIVTRCPLVLKLKKQPCEAWAGRISYRNTELELQDPGQVEKEIHKAQNVMAGNGRGISHELISLEITSPEVPDLTIIDLPGITRVAVDNQPRDIGLQIKALIKKYIQRQQTINLVVVPCNVDIATTEALSMAHEVDPEGDRTIGILTKPDLMDRGTEKSVMNVVRNLTYPLKKGYMIVKCRGQQEITNRLSLAEATKKEITFFQTHPYFRVLLEEGSATVPRLAERLTTELIMHIQKSLPLLEGQIRESHQKATEELRRCGADIPSQEADKMFFLIEKIKMFNQDIEKLVEGEEVVRENETRLYNKIREDFKNWVGILATNTQKVKNIIHEEVEKYEKQYRGKELLGFVNYKTFEIIVHQYIQQLVEPALSMLQKAMEIIQQAFINVAKKHFGEFFNLNQTVQSTIEDIKVKHTAKAENMIQLQFRMEQMVFCQDQIYSVVLKKVREEIFNPLGTPSQNMKLNSHFPSNESSVSSFTEIGIHLNAYFLETSKRLANQIPFIIQYFMLRENGDSLQDAMMQILQEKNRYSWLLQEQSETATKRRILKERIYRLTQARHALCQFSSKEIH
B1 displayed a binding specificity (percent of input co-pelleted, background corrected) in data set [1] of 27%.

B2: MxB-HA E681A (natural protein)
chain: B1 chain with D663K, E681A
For B2, in data set [1], the binding specificity (percent of input co-pelleted, background corrected) was 9.8%.

B3: MBP-MxB_(1-715 IKM/DDD) (natural protein, UniProt P20592 1-715, looked up)
chain: B1 chain with I423D, M666D
B3: in “SEC [2]”, the “stoichiometry N” value is 2.

B4: MxB-HA M666D (natural protein)
chain: B1 chain with D663K, M666D
In data set [1], B4 registered a binding specificity (percent of input co-pelleted, background corrected) of 26%.

B5: MxB-HA Y651D (natural protein)
chain: B1 chain with Y651D, D663K
As to B5, the binding specificity (percent of input co-pelleted, background corrected) in data set [1] was less than 0.1%.

B6: MBP-MxB_(1-715 IK/DD) (natural protein, UniProt P20592 1-715, looked up)
chain: B1 chain with I423D
On to B6, for which the binding specificity (percent of input co-pelleted, background corrected) in data set [1] worked out at 40%. The “stoichiometry N” value in “SEC [2]” turned out to be 2.

B7: MBP-MxB (full-length WT MxB tagged with maltose-binding protein) (natural protein, UniProt P20592 1-715, looked up)
chain: B1 chain with D663K
Consider B7, for which the binding result in “cryo-EM imaging” was “binds”.

B8: MxB_(84YRGK) (6xHis-MxB residues 84-715 with YRGK487-490AAAA) (domain or fragment)
chain: GPENNLYSQYEQKVRPCIDLIDSLRALGVEQDLALPAIAVIGDQSSGKSSVLEALSGVALPRGSGIVTRCPLVLKLKKQPCEAWAGRISYRNTELELQDPGQVEKEIHKAQNVMAGNGRGISHELISLEITSPEVPDLTIIDLPGITRVAVDNQPRDIGLQIKALIKKYIQRQQTINLVVVPCNVDIATTEALSMAHEVDPEGDRTIGILTKPDLMDRGTEKSVMNVVRNLTYPLKKGYMIVKCRGQQEITNRLSLAEATKKEITFFQTHPYFRVLLEEGSATVPRLAERLTTELIMHIQKSLPLLEGQIRESHQKATEELRRCGADIPSQEADKMFFLIEKIKMFNQDIEKLVEGEEVVRENETRLYNKIREDFKNWVGILATNTQKVKNIIHEEVEKYEKQAAAAELLGFVNYKTFEIIVHQYIQQLVEPALSMLQKAMEIIQQAFINVAKKHFGEFFNLNQTVQSTIEDIKVKHTAKAENMIQLQFRMEQMVFCQDQIYSVVLKKVREEIFNPLGTPSQNMKLNSHFPSNESSVSSFTEIGIHLNAYFLETSKRLANQIPFIIQYFMLRENGDSLQKAMMQILQEKNRYSWLLQEQSETATKRRILKERIYRLTQARHALCQFSSKEIH
B8 had a percent co-sedimented with CA in data set [1] of 9%.

B9: MxB_(84YRGK/M574D) (domain or fragment, UniProt P20592 84-715, looked up)
chain: B8 chain with M491D
For B9, in the data set “SEC [3]”, the binding result is on record as “binds”.
